Assay results published in publication PMC5941077.

Molecular target: FLAG-tagged 3D7 CLAG3 protein (3D7 CLAG3.1 with tandem miniSOG-FLAG tag, TFLC3 parasite) (Plasmodium falciparum (3D7 line)) (UniProt O77310)
Assay: co-IP; TFLC3 trophozoite-infected cell lysate in 50 mM Tris-HCl pH 7.4, 150 mM NaCl, 5 mM EDTA, 1% Triton X-100; anti-FLAG agarose beads, at least 2 h at 4°C; immunoblot probed with anti-HA; eluate compared with serial dilutions of the input

Chain of UniProt O77310 (O77310 25-1417): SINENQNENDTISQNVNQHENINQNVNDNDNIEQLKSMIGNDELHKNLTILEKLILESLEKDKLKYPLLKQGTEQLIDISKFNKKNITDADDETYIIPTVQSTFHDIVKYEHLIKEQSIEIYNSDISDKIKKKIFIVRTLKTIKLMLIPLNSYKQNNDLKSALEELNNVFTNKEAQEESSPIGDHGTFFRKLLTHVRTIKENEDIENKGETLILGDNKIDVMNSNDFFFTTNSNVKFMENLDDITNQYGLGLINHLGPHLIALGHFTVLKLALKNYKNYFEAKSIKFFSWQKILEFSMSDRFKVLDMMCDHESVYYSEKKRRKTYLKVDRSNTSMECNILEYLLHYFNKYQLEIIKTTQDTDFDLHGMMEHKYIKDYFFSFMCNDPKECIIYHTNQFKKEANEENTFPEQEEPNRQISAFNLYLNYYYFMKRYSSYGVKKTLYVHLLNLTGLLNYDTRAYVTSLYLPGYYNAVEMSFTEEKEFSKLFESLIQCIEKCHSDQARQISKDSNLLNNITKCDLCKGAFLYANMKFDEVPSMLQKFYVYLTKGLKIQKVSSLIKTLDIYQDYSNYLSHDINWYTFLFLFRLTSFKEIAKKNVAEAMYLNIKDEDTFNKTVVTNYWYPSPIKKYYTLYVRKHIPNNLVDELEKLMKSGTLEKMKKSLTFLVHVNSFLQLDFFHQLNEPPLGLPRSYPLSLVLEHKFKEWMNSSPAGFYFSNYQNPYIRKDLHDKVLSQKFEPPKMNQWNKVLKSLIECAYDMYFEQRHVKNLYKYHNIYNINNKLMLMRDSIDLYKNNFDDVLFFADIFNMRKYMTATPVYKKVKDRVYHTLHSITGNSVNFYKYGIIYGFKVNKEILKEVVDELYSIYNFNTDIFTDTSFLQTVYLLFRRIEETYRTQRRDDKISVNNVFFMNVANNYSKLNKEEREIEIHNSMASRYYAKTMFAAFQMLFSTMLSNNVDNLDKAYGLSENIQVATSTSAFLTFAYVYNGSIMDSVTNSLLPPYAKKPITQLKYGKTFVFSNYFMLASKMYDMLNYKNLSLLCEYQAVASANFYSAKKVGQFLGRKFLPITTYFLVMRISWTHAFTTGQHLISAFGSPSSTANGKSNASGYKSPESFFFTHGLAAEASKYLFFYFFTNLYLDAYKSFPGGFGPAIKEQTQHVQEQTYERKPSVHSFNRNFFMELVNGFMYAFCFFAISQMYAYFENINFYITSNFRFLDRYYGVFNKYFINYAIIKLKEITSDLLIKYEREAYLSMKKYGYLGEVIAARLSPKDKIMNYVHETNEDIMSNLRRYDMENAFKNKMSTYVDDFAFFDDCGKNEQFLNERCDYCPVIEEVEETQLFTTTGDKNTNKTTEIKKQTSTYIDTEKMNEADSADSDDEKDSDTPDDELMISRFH

Substance: HA-tagged Dd2 CLAG3 protein (TFLC3 parasite) (natural protein)
- percent of the HA-tagged isoform coprecipitated on anti-FLAG beads: 1 to 10%
